Results reported in patent publication US20250171534A1 (D2M BIOTHERAPEUTICS, published 2025).

Tests used:
[1] = target: T1, cynomolgus (monkey) LILRB2 expressed on CHO cells (cynomolgus monkey); assay: flow cytometry on CHO-cynoLILRB2 cells
T1 construct: whole, on cells; Putative orthologue; also called cynoLILRB2; cynoRB2

[2] = target: T2, LILRB1-ECD-HIS (SinoBiological Cat #: 16014-H02H) (human, UniProt Q8NHL6 24-461); assay: SPR (Carterra), LILRB1-ECD-his
T2 construct: Bought protein; also called monomeric antigen LILRB1-ECD-HIS; not shown: His tag

[3] = target: T3, LILRB2-ECD-HIS (SinoBiological Cat #: 14132-H02H) (human, UniProt Q8N423 22-460); assay: SPR (Carterra), LILRB2-ECD-his
T3 construct: Bought protein; also called monomeric antigen LILRB2-ECD-HIS; not shown: His tag

[4] = target: T4, human LILRB1 expressed on cells (human, UniProt Q8NHL6 24-650); assay: flow cytometry, CHO-LILRB1 cells
T4 construct: In 293T cells it was expressed from pCMV3-LILRB1-GFP; also called CHO-LILRB1; Jurkat-LILRB1

[5] = target: T4, human LILRB1 expressed on cells; assay: flow cytometry, Jurkat-LILRB1 cells
[6] = target: T2, LILRB1-ECD-HIS (SinoBiological Cat #: …); assay: SPR (Carterra LSA), antibody captured, antigen injected;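 further: kd obtained from kinetic analysis of antibody binding to the antigen, with association and dissociation phases fitted in the instrument software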
[7] = target: T3, LILRB2-ECD-HIS (SinoBiological Cat #: …); assay: as above
[8] = target: T2, LILRB1-ECD-HIS (SinoBiological Cat #: …); assay: BLI (Gator), trace labelled 2 µg/mL; unit taken from the Average KD line
[9] = target: T3, LILRB2-ECD-HIS (SinoBiological Cat #: …); assay: as above
[10] = target: T5, LILRA1 expressed on cells (human, UniProt O75019 17-489); assay: flow cytometry on CHO-LILRA1 cells, non-linear fit of the curves of FIG. 26E
T5 construct: whole, on cells; GFP-tagged; also called human LILRA1; CHO-LILRA1

[11] = target: T6, LILRA6 expressed on cells (human, UniProt Q6PI73 24-481); assay: flow cytometry on CHO-LILRA6 cells, non-linear fit of the curves of FIG. 26F
T6 construct: whole, on cells; GFP-tagged; also called human LILRA6; CHO-LILRA6

[12] = target: T4, human LILRB1 expressed on cells; assay: flow cytometry, CHO-LILRB1 cells; blocked ligand: APC HLA-G trimer tetramer
[13] = target: T1, cynomolgus (monkey) LILRB2 expressed on …; assay: flow cytometry on CHO-cynoLILRB2 cells, non-linear fit of the curves of FIG. 26D
[14] = target: T4, human LILRB1 expressed on cells; assay: flow cytometry, Jurkat-LILRB1 cells; blocked ligand: APC HLA-G trimer tetramer
[15] = target: T4, human LILRB1 expressed on cells; assay: flow cytometry on CHO-LILRB1 cells (CHO-RB1), titrated antibody, labelled anti-human Fc, gMFI
[16] = target: T7, human LILRB2 expressed on cells (human, UniProt Q8N423 22-597); assay: flow cytometry on CHO-LILRB2 cells (CHO-RB2), titrated antibody, labelled anti-human Fc, gMFI
T7 construct: In 293T cells it was expressed from pCMV3-LILRB2-GFP; also called CHO-LILRB2; Jurkat-LILRB2

[17] = target: T8, LILRB5 expressed on 293T cells (UniProt O75023 24-590, limits assumed); assay: flow cytometry on 293T cells transiently expressing LILRB5, APC anti-human Fc; gMFI as fold to IgG staining
T8 construct: whole, on cells; GFP-tagged, transient

[18] = target: T9, LILRA5 expressed on 293T cells (UniProt A6NI73 42-299, limits assumed); assay: flow cytometry on 293T cells transiently expressing LILRA5, APC anti-human Fc; gMFI as fold to IgG staining
T9 construct: whole, on cells; GFP-tagged, transient
T9 sequence (A6NI73 42-299 limits assumed): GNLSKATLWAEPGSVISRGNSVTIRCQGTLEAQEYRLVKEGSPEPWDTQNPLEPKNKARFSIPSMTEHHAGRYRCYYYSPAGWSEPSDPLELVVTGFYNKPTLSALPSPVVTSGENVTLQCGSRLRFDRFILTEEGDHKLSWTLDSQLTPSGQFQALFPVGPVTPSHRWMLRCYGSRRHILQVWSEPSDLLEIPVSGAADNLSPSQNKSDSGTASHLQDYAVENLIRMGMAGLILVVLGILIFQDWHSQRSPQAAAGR

T2 sequence (Q8NHL6 other isoform, or with tags, fused parts or gaps H02H H02H): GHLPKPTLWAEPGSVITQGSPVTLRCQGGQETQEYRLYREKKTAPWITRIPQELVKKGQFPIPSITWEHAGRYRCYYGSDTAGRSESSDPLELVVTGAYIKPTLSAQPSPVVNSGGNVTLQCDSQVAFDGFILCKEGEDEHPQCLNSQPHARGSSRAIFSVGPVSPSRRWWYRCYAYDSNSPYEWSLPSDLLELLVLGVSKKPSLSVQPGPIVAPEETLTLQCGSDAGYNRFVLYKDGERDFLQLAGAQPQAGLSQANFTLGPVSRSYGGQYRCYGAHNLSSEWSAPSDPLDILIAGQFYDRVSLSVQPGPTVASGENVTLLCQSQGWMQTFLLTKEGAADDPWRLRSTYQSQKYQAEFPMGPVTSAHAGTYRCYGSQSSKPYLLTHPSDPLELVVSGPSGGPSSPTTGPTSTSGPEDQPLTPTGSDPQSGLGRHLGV
T3 sequence (Q8N423 other isoform, or with tags, fused parts or gaps H02H H02H): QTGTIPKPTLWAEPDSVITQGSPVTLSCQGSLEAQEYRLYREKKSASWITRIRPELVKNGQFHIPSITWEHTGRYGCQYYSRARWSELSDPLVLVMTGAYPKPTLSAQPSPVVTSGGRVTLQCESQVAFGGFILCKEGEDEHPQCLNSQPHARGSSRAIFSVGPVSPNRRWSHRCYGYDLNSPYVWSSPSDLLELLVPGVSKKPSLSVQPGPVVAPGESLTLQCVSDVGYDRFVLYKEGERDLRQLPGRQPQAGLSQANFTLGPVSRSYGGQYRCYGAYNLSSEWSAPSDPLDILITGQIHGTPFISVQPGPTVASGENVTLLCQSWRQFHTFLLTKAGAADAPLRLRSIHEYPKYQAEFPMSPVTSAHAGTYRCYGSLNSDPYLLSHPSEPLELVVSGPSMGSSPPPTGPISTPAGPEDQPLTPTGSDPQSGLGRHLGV
T4 sequence (Q8NHL6 other isoform, or with tags, fused parts or gaps limits assumed): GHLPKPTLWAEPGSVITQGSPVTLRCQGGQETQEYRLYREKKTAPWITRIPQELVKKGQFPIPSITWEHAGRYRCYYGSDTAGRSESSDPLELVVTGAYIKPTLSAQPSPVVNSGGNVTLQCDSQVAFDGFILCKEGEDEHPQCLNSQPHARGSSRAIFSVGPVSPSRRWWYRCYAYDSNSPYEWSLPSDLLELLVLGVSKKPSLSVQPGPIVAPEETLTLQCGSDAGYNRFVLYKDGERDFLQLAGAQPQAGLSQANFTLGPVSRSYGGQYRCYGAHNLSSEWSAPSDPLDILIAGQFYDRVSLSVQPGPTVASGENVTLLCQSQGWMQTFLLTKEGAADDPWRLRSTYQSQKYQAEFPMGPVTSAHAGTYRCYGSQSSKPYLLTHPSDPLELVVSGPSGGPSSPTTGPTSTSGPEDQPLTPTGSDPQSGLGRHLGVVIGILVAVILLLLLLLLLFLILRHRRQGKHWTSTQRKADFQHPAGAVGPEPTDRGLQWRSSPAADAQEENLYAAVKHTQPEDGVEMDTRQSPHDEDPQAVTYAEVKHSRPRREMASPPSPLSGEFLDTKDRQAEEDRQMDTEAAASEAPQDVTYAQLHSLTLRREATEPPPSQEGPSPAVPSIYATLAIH
T5 sequence (O75019 17-489): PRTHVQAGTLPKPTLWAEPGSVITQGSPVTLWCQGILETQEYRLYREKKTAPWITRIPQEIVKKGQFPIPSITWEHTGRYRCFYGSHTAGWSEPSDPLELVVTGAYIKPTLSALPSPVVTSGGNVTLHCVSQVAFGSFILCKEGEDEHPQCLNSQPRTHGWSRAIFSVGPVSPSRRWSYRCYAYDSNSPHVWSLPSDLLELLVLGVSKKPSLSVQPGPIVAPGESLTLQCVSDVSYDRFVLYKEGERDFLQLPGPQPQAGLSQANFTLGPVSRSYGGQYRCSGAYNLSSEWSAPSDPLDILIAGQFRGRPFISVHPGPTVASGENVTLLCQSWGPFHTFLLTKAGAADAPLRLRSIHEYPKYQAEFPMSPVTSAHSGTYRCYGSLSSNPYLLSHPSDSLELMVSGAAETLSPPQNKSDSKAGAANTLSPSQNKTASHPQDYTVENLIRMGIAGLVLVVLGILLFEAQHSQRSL
T7 sequence (Q8N423 other isoform, or with tags, fused parts or gaps limits assumed): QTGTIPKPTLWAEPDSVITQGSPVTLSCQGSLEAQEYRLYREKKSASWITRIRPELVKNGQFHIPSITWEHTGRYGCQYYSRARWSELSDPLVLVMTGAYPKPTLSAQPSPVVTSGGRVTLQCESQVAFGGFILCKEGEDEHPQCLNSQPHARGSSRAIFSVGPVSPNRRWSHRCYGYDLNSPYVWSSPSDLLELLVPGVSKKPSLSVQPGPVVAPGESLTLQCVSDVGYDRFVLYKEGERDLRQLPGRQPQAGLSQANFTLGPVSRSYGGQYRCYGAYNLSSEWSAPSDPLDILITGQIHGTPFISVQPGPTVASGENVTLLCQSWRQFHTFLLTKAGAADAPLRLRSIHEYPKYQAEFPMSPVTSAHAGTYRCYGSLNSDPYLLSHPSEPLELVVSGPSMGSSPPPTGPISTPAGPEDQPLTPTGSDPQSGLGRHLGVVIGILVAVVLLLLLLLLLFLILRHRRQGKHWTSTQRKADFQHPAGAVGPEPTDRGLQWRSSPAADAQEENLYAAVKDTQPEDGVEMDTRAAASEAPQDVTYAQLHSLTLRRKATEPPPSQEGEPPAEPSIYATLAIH
T6 sequence (Q6PI73 24-481): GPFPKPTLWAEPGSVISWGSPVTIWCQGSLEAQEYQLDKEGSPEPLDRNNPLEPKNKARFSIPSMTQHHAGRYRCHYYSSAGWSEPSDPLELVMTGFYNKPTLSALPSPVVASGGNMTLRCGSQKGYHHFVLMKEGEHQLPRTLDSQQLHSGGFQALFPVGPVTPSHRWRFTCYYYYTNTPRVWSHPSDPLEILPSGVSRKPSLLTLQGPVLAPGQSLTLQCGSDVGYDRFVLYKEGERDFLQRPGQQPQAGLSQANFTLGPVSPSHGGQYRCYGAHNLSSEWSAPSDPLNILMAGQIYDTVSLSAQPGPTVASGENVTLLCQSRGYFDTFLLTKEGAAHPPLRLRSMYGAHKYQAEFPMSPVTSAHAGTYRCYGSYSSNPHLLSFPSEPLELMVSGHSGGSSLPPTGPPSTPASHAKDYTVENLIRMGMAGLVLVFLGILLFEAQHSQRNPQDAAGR
T8 sequence (O75023 24-590 limits assumed): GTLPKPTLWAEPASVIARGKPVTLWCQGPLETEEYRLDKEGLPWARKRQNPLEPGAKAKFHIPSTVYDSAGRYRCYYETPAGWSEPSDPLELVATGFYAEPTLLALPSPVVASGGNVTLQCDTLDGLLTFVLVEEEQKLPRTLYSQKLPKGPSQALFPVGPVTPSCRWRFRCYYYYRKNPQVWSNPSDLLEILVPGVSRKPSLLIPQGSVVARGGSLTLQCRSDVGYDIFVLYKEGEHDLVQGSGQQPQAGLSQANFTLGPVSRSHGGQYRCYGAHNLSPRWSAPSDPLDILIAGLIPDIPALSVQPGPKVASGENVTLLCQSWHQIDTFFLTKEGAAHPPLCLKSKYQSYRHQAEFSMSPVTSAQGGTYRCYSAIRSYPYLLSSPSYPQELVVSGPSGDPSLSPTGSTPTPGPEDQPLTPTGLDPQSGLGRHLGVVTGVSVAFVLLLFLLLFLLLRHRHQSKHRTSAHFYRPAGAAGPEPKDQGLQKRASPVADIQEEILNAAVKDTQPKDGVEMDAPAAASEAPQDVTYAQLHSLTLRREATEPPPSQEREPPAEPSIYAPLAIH

EC50 [1]: 5.5 µg/mL
Kd [2]: 5.67 nM
koff [2]: 0.000347 s⁻¹
kon [2]: 61300 M⁻¹ s⁻¹
Kd [3]: 0.44 nM
koff [3]: 0.0002 s⁻¹
kon [3]: 456000 M⁻¹ s⁻¹
EC50 [4]: 0.439 µg/mL
gMFI (max) [4]: 35700
EC50 [5]: 0.754 µg/mL
Kd [6]: 9.77 nM
Kd [7]: 1.57 nM
Kd [8]: 3.45 nM
Kd [9]: 0.242 nM
EC50 [10]: 0.474 µg/mL
MaxMFI [10]: 19500
EC50 [11]: 9.46 µg/mL
IC50 [12]: 0.208 µg/mL
EC50 [13]: 2.85 µg/mL
IC50 [14]: 0.191 µg/mL
EC50 (read off the curve) [15]: ~0.2 µg/mL
EC50 (read off the curve) [16]: ~0.1 µg/mL
binding result [17]: no binding (tested: 5 µg/mL)
binding result [18]: no binding (tested: 5 µg/mL)
B1: D2M002-002 (antibody, V domains shown)
VH: EVQLQQSGPELVKPGASVKMSCKASGYTFTRYVMHWVKQKPGQGLEWIGYINPNNDGTKYNEKFKGKVTLTSDKSSSTAYMELSSLTSEDSAVYYCARGDLEILPYYDHARNAMDYWGQGTSVTVSS
VL: DVQMIQSPASLSASVGETVTITCRASENIYSYLAWYQQKQGKSPQLLVYNAKTLAEGVPSRFSGSGSGTQFSLKINSLQPEDFGSYYCQHFWSTPPTFGGGTKLEIK
notes: Hit from immunised mice; also called clone #2; anti-LILRB1/2 clone #2
